The target in experiment [1] is nbn_human NBN (UniProt O60934).
Experiment [2] concerns the target nbn_human NBN (UniProt O60934). This is another data set of the same source.

Chain of UniProt O60934 (O60934 whole entry): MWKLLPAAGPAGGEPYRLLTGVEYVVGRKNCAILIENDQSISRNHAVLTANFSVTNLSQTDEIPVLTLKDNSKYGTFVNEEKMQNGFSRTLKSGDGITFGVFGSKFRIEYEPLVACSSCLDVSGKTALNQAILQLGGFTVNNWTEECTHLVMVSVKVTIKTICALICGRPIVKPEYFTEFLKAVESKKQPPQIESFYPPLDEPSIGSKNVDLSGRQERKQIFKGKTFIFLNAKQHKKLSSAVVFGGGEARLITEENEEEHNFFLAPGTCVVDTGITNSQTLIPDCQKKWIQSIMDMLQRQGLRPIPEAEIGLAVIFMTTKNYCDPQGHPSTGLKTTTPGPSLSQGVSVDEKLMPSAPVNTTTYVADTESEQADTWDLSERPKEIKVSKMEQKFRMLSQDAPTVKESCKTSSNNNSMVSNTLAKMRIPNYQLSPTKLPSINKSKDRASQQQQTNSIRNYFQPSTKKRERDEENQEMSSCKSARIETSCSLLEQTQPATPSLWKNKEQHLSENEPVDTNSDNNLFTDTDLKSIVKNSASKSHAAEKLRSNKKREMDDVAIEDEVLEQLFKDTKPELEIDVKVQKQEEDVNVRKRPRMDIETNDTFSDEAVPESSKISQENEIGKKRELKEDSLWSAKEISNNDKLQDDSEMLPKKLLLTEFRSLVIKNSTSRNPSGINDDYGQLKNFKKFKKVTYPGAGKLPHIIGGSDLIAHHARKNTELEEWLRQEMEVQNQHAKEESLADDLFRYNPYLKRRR

On to “Histone acetyltransferase p300 (Homo sapiens), Q09472 S106A”, for which the figures for the “effect of a mutation on the interaction” value in the experiment with nbn_human NBN [1] and in the experiment with nbn_human NBN [2] were “disrupting interaction” and “decreasing interaction”, respectively.
